Measured values as given in the nanobody polyreactivity screen of Harvey et al. (2022).

Assay: yeast display, Sf9 membrane polyspecificity reagent, FACS + sequencing; frameworks hold sequencing errors
How it was run: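 Sorting gates, low and high (top ~1%), were placed on anti-HA fluorescence to track expression and on streptavidin fluorescence to track reagent binding. A clone's polyreactivity label is taken from the gate it came out of. The reagent was 10% biotinylated, detergent-solubilized Sf9 membrane, applied for 1 hour at 4 °C to galactose-induced yeast display cells.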

Question: For “QVQLVESGGGLVQGGGSLRLSCAASGRTFQRYAMGWYRQAPGKERELVAAISNRGGSTYYADSVKGRFTISRDNAKNTVYLQMNSLKPEDTAVYYCRTSTPRRVSGNYWGQGTQVTVSS”, which “polyreactivity (PSR sort gate)” value is on record?
Answer: high polyreactivity

Question: With “QVQLVESGGGLVQAGGSLRLSCSASGYIFLRNAMGWYRQAPGKERALVAAIRRTGGSTYYADSVKGRFTISRDNSKNTVYLQMTSLKPEDTAVYYCDKRSYTGYEYWGQGTQVTVSS” as the sequence, how does the “polyreactivity (PSR sort gate)” value read?
Answer: low polyreactivity

Question: Which “polyreactivity (PSR sort gate)” value does the source give for “QVQLVESGGGLVQAGGSLRLSCAASGSTIPRNAMGWYRPAPGKERELVAAITSGGSTNYADSVKGRFTLSRDNAKNTVYLQINSLKPEDTAVYYCAADEQVNTQYVVWGDYWGQGTQVTVSS” here?
Answer: low polyreactivity

Question: Which “polyreactivity (PSR sort gate)” value does the source give for “QVQLVESGGGLVQAGGSLRLSCAASGRTFPINAMGWYRQAPGKERELVASIRWTDGTTYYADSVKGRFTISRDNAKNTVYLQMNSLKPEDTAVYYCAADAEGSASKYDYWGQGTQVTVSS” here?
Answer: low polyreactivity

Question: Which “polyreactivity (PSR sort gate)” value does the source give for “QVQLVESGGGLVPAGGSLRLSCAASGSTFAKYAMGWYRQAPGKERELVASIRLSGGSTYYADSVKGRFTISRDHAQNTVYLQMNSLKPEDTAVYYCNKQFATFYYGFHYYYWGQGTQVTVSS” here?
Answer: low polyreactivity

Question: Which “polyreactivity (PSR sort gate)” value does the source give for “QVQLVESGGGLVQAGGSLRLSCAASGFTFYRYAMGWYRQAPGKERELVAAITNGGGTYYADSVKGRFTISRDNAKNTVYLQMNSLKPEDTAVYYCAAKSRLPTQGLGIYYWGQGTQVSVSS” here?
Answer: high polyreactivity

Question: With “QVQLVESGGGLVQAGGSLRLSCAASGFIFGINAMGWSRQAPGKERELVAAISRSGGRTYYADSVKGRCTISRDNAKNTVYLQMNSLKPEDTAVYYCAADKASYTNYDGDSWGQGTQVTVSS” as the sequence, how does the “polyreactivity (PSR sort gate)” value read?
Answer: high polyreactivity

Question: Which “polyreactivity (PSR sort gate)” value does the source give for “QDQLVESGGGLVQAGGSLRLSCAASGSNFVPYAMGWYRQSPGKERELVAAISGSGTRTYYAYSVKGRFTISRDNSKNTVYLQMNSLKPEDTAVYYCDADWRRSVGYTMGYWGQGTQVTVSS” here?
Answer: high polyreactivity

Question: Which “polyreactivity (PSR sort gate)” value does the source give for “QVQLVESGGGLVQAGGSLRLSCAASGRILRQYAMGWYRQAPGKERELVAAITSSGGSTYYADSVKGRFTNSRDNAKNTVYLQMNSLKPEDTAVYYCAARYYPSGYRKKMYYWGQGTQVTVSS” here?
Answer: high polyreactivity

Question: For “QVQLVESGGGLVQAGGSLRLSCAASGSIFTPYAMGWSRQAPGKERELVAVISWRVDSTYYADSVKGRFTISRDNAKNTVYLQMNSLKPEDTAVYYCAAKSYLLAPFGSGNRWSRYDYWGQGTQVTVSS”, which “polyreactivity (PSR sort gate)” value is on record?
Answer: high polyreactivity

Question: Which “polyreactivity (PSR sort gate)” value does the source give for “QVQLVESGGGLVQAGGSLRLSCAASGSTFYANAMGWYRQAPGKERELVATINRRGNKYYADSVKGRFTISRDHAKNTVYLQMNSLKPEDTAVYYCAADAWVGWHDEYDYWGQGTQVTVSS” here?
Answer: low polyreactivity

Question: With “QVQLVESGGGLVQAGGSLRLSCAASGRIFRYYAKGWYRQATGKERELVAAISWSGGSTYYADSVKGRFTISRDNAKNTVYLQMHSLKPEDTAVYYCNAAVTQFTHRWRRRITFDYWGQGTQVTVSS” as the sequence, how does the “polyreactivity (PSR sort gate)” value read?
Answer: high polyreactivity

Question: With “QVQLVESGGGLVQAGGSLRLSSAASGITLKRYALGWYRHAPGKERELVAAITGRGGGTNYADSVKGRFTISRDNAKNTVYLQMNSLKPEDTAVYYCAARYLQGRYDYWGQGTQVTVSS” as the sequence, how does the “polyreactivity (PSR sort gate)” value read?
Answer: high polyreactivity

Question: With “QLQRVESGGGLVQAGGSLRLSCAASGSIFSPYAMGWYRQAPGKERELVAAISTRGGNTYYADSVKGRFTISRDNAKNTVYLQMNSLKPEDTAVYYCARKIRREGRYDYWGQGTQVTVSS” as the sequence, how does the “polyreactivity (PSR sort gate)” value read?
Answer: high polyreactivity

Question: Which “polyreactivity (PSR sort gate)” value does the source give for “QVQLVESGGGLVQAGGSLRLSCAASGFIFGLNAMGWYRPAPGKERELVAAIRSASSTNYADSVKGRFTISRDNAKNTVYLQMNSVKPEDTAVYYCAAEYVTYQQGFWGYDYWGQGTEVTVSS” here?
Answer: low polyreactivity

Question: Which “polyreactivity (PSR sort gate)” value does the source give for “QVQLVESGGCLVQAGGSLRLSCAASGSTFNYYAMGWYRQAPGKERELVAAISSSGGRTYYADSVKGRFTISRDNAKNTVYLQMNSLKPEDTAVYYCNARTYSYRGYNYWGQGTQVTVSS” here?
Answer: high polyreactivity

Question: For “QVQHVESGGGLVQAGGSLRLSCPASGSTLYGYAMGWYRQEPGKESELVAAINTGASTNYADSVKGRFTISRDNAKNTVYLQMNSLKPEDTAVYYCAASYSLTFWDKDDYWGQGTQVTVSS”, which “polyreactivity (PSR sort gate)” value is on record?
Answer: low polyreactivity

Question: Which “polyreactivity (PSR sort gate)” value does the source give for “QVQLVESAGGLVQAGASLRLSCAASGYIFFGNAMGWYRQAPGKERELVAAIRWRGTSTYYADSVKGRFTISRDNAKNTVYLQMNSLKPEDSAVYYCAADVVRSNFYGTFLYDYDYWGQGTQVTVSS” here?
Answer: low polyreactivity

Question: Which “polyreactivity (PSR sort gate)” value does the source give for “QVQLVESGGALVQAGGSLRLSCAASGLTFIAYALGWYRQAPGKERELVASIDSGGGTNYADSVKGRFTISRDNAKNTVYLQMNSLKREDTAVYYCAAESPLYWVDDFESGWRYYYWGQGTHVTVSS” here?
Answer: low polyreactivity

Question: With “QVQLVESGGGLVQAGGSLRLSCAASGRIIGLYTMGWYRQAPGKERELVAAINIRGTRTYYADSVKGRFTISRDNAKNTVYLQMNSLKPEDTSVYYCARSPVVVGSFLSYDYWGQGTQVTVSS” as the sequence, how does the “polyreactivity (PSR sort gate)” value read?
Answer: high polyreactivity

Question: For “QVQLVESGGGLVQAGGSLRLSCAASGFIFTKYTMGWYRQAAGKVRELVAAIDSGGNTYADSVKGRFTISRDNAKNTVYLHMNSLKPEDTAVYYCAVDGGEFSSYGYWGQGTQVTVSS”, which “polyreactivity (PSR sort gate)” value is on record?
Answer: low polyreactivity

Question: With “QVQLVESGGGLVQAGGSLRLSCAASGRIFVPYVMGWYRQAPGKDRELVASISDSDTSTYYADSVKGRFTISRDNAKNNVYLQMNSMKPEDTAVYYCNVDYWGQGTQVTVSS” as the sequence, how does the “polyreactivity (PSR sort gate)” value read?
Answer: low polyreactivity

Question: With “QVLLQESGGGLVQAGGSLRLSCAASGTISTDIRMGWYRLAPGKEREFVASIDGCSTTYYADSVKGRFTISRDNAKNTVFLQMNSLKPEDTAMYYCAAREATEFYLYYWGQGTQVTVSS” as the sequence, how does the “polyreactivity (PSR sort gate)” value read?
Answer: low polyreactivity

Question: Which “polyreactivity (PSR sort gate)” value does the source give for “QVQLVESGGGLVQAGGSLRLSCAASGSTLGRYAMGWYRQAPGKERELVAAISSSGTTYYADSVKGRFTISRDNAKNTVYFQMNSLKPEDTAVYYCNARGFRVARHAAWYQYYYWGQGTQVTVSS” here?
Answer: high polyreactivity

Question: Which “polyreactivity (PSR sort gate)” value does the source give for “QVQLVESGGGLVQAGGSLRLSCAASGRIFIGNAMGWYRQAPGKERELVAAISKRGGSTYYADSVKGRFTISRDNAKNTVYLQMNSLKQEDTAVYYCNKESLYREFDYWGQGTQVTVSS” here?
Answer: low polyreactivity

Question: With “QVQLVESGGGLVQAGGSLRLSCAASGLTFFRNAMGWYREATGKERELVATITSTSSTNYADSVKGRFTISRDNAKNSVYLQMNSLIPEDTAVYYCAARTVGRKAGFDYWGQGTQVTVSS” as the sequence, how does the “polyreactivity (PSR sort gate)” value read?
Answer: high polyreactivity

Question: For “QVQLVESGGVLVQEGGSLRLSCDASGSIFECYAMGWYRQAPGKARELVAYITYNGGSTYYADSVKGRFTISRHNAKKTVYLQMNSLKPEDSAVYYCAAVYFVQVPDYYYASEYGYWGQGTQVTVSS”, which “polyreactivity (PSR sort gate)” value is on record?
Answer: low polyreactivity

Question: Which “polyreactivity (PSR sort gate)” value does the source give for “QVQLVESGGGLVQAGGSLRLSCAASGSTFGLYGMGWYRQAPGKERELVAAITYSGGGTYYADSVKGRFTISRDNAKNTVYLQMNSLKPEDTAVYYCAAEYYSSITGWYYYWGQGTLVTVSS” here?
Answer: low polyreactivity

Question: With “QVQLVESGGGLVQAGGSLRLSCAASGRTFRDNAMGWYRQAPGKERELVAAISSGDRTNYADSVKGRFTISRDNAKNTVYLQMNSLKPEETAVYYCAAVRYNSRVSTTPSEMYYWGQGTQVTVSS” as the sequence, how does the “polyreactivity (PSR sort gate)” value read?
Answer: low polyreactivity

Question: For “QVQLVESGGGLVQPGGSLRLSCAASGLTFDDNAKGWYRHAPGKERELVAAISKSGDGTYYADSVKGRFTISRDNAKNTVYLHMNSLKPEDTAVYYCNADAKYWRYVYWWFGDDYWGQGTQVTVSS”, which “polyreactivity (PSR sort gate)” value is on record?
Answer: low polyreactivity

Question: Which “polyreactivity (PSR sort gate)” value does the source give for “QVQLVESGGGLVQAGGSLRLSCAASGRTFFPYVMGWYRQAPGKERELVAAISNSGTSTYYADSVKGRFTISRDNAKNTVYLQMNSLKPEDTAVYYCAARRYVGLYYWGQGTQVTVSS” here?
Answer: high polyreactivity
